We go through 19 sequences from a protein production outcome set (Wang et al. 2014).

The nature of the data set: label from the status in PepcDB records.
Regarding “MTGHIDPTKEVFAQFRANDREGPIHMLNLVRLRPRAAYPDGRETTGAEAYAAYGRDSGPVFERLGGKVVWQGQFELMLIGPQDEHWDHVFIAEYPSVAAFVEMIRDPVYREAVKHRQAAVEDSRLIRLKPLKPGKGFGEIPT”, the protein production result is on record as “not failed”.

For the sequence “MSTPSHLNAQPLVWGHGPRTFEVFLEPTCPYSVRAFNKLDDLLDEVGADNVTIKIRLQSQPWHLFSGVIVRCILAASTLPHGREQAHKVMQAVADHREEFEFTDHCSGPNMNATPQQIIERIERYSHVLLGAAFARPELQDVIKWHSKYARQNGIHVSPTFMVNGLVQPDLGSGDDVSVWAARIMA”, the protein production result is on record as “failed”. For “MALREQWAETAMGVVVLALTAGFLTYSLTVGGVHMKRGDYEISAKFGEAGSLAPGAAVTVAGVKVGTVSQITLEPKTYLAVAKLSIDPTVKLPADSTAKITSDGLLGGAHVAIAPGASLDDLKPGGEIENTQGAVDLFGLIGSVIRPQGGAATTSTPAEANPATQPAESYLEHHHHHH”, the protein production result is “not failed”. For “MRKTYKYRLYTCERNKHLVESIELASVVWNHFVALTRRYYEIYGEYPGYYALKKHLTKLKQRDKGHWYDLNSQALQNVIERLDQAYQRFFEIDSAGRPGFKKREKYTSFTLTQTGWKLLGGNRVRIQNHNYKFVKSRPIKGEIKTVTIKRDACGYLWICFSVEKEPPTPELPRTGNAVGLDFGLKDFLVTSDGDRIQAPEPLQESLEEVQDLHKKLSRKERGSNNRKEAKRRLAKKYRQIDNQRKDFHFKLARRLFSRYDVVCIEELNVGAMKELWGRKVSDLGFASFVKILEHVAQKEGKEVRKIDRWFPSSQTCSDCSHRYEDLSLEERTWTCEECGSLHDRDLNAARNVLERALSSAEAGVRPSGAAARVARSS” the value was “failed”. In the case of “MTENNQTAPNPESLDGLSYEEAREQLVAVVGRLEAGGASLEESLALWERGEALAKRCEDWLEGARKRLATARDASSDGGTPA”, the protein production entry was “failed”. Under “MNSFSSKNPEGCSLKVLIKYLLKLSVVPFLIGLGGFIVFVSLEILYQLSDLIVRHRVGIEKLFLMLYYYLPYFVAMGVPVGVLLAIFWTFSRLSEERELMAIQVHGISQKNLIVPFLILGALLSIAVFFLSDQIVPEYQSKAEEAMSKYVLKKPEVFVVENVISKIGDDQYFYVEKYDERTSTMWNVVIFRYGHEETIVTAKRVQKKGNDWYLFDGNYYTVDKDGFLKLDVHFSEMKLDITEDIEKLLRVGKTPKEMTGKELKEKIEFFKKVGVKPSPWVVELHSRYANSLTPIVIVLVGVPLSLLFQLRSKSWGVIFTFVLVVLYQGSGAWLSAMGKENLLNPVLAPWIPNIVFTIVGTLLFILLDTFFAYRITEFLSRLFFVAFIFTVSSLFSSQVVIVSDRMEKFPEEMVFHGSVEIAYKDMTVQASEATIQLTEEGKAKKLEASGGVIYRKADTILMGEHLIFYLENEKSVLTHIRGSTVLEIEKEKKKIYLSGEDLTSEGSRTIVDMGSISTCSETPPHYKLKARYIEIKENDYLLAKDVVFYLLEIPLFYQPIFFTSLSDKPQPFSVEVGVGNNPHLKTSYNVSYPSGLLYFSTKSVLSGGLSKELNWNHKMGSWSLNLDYKESTSHSVLVKIFDSKNTFLFSQKNEERIHQFERKEKILNGSLNVVLRKESDGEDSYILPRVTVKKVSVKTGVGTFSVDSFNHETRIEDQEKRNSGSVSLSFRSVPFLLFQSVSVSTTGKYLFENQNLDERTSYLKTDSIWDFQNLSLGKFLVLDDKIYAGVYRSNEDGYRVGNLFTTTLRVPLGPFSFESYYKLFTVSGENLRKFSQNESKNEVDLKVSFSYENFKSSLETTYDFLEKEFSDPYLKTSYSFKTGDITHTVDSTTRFVLDEISRSYTTWNFQQRMGAFLNRFYFTYYYREPHVKYVEDQMRIYGKNFLFMENPRITTYTKLSVDPFELDEFWIRGTFKKGESTHSLKMSYSSDNLEFSYQTKNGDPALEISFSLKDWNVEKFSLSVEKALHCLGTKISTSFGRNFTLESFSILFFIRDFPNSGIGFDTEEGIGLNVF” stands “failed”. With “MKFFSVFILAILSILCMPLIASTTNYDETLTKIETLQHSDLPAAINLIKTIESEFGAMSRLQQGRVLLFKGAASIYSGQYQTAIELLGQAEALLKDSEMLFSAYSYEATAYIALRHFNDAFIAMGKSLGLIERIEDTNLKRASYLRLASLYSAMGISEEVATYATKALALASESDVKDICGARLYLSVHQLEIASYAQAFDEFKSTRSYCESSGYPLIANIALKGMGESSLRLNEPQLAISYLLDSLKGYESFNFELEINSVHELLSEAYLLLQDSTKAELHAQYVMNLVDDSSNTELKHGASGVLAKIYAQKQQFEQAYEYSRKEQHYNQLIFDESRMKTLAYQAAKFNADEQAREINLLNKERELYIAQQMVKEREYTNMLMFITILVGGLFFLAILLVVGNLQKRRFMRMAKMDALTGVLNRGAGQDLGENMFVQAAARGGDYCVILFDLDHFKRINDSYGHGTGDWALKKVVEVLKPHIRNGDVFARIGGEEFALFLPYANEAKGLDVAEQCRSRIEAIDTHLSGHKFTITASFGVSGMTKDDLSLDPLLHRADMALYAAKSNGRNCVSCYQDALMCDKRVTNLTSELARQP”, the protein production result is recorded as “failed”. Turning to “MSLASFPHRNLTWNDINFVHTTDTHGWYSGHINQPLYHANWGDFISFTTHMRRIAHSRNQDLLLIDSGDRHDGNGLSDITSPNGLKSTPIFIKQDYDLLTIGNHELYLWENSKQEYETVVNHFQDKYVCSNVDIRLDNGLFVPLGLKYKYFTTPIRGIRVMAFGFLFDFKRFNSGTRVTPMAETIHEPWFQEALKHEVDLIIIVGHTPISHNWGEFYQVHQYLRQFFPDTIIQYFGGHSHIRDFTVFDSLSTGLQSGRYCETVGWTSVNLDKADLNLPVRQRFSRSYIDFNTDSFKYHTNLDKEFDTAKGKLVSKLIRETRKELKLDTLIGYVKTNYYVDYVPIDHPKSIFNLLALKILKTLPKSKHEERITIINTGSIRYDLYKGPYTIDSKFIVSPFENIWVNITVPKSVATKVAAKLNDADYISASRLKPPHQYDLQVQDLSTSPHQAHFEMQEKLPKGYVTHDDFGADGDDTLHRAVVNFPVPNVIQSVEINDEVDSPVNLVFYSFITPNIIWALKELNFSTEQVPTPYSDIYLGTLLNEFVANNEGHHHHHH”, the protein production entry is recorded as “not failed”. For “MKWLLVASAALYLFGSFRRPLFALGLGAGLAYLALRGISLGRLPLVGPHDTIAFFSASIGLMTLPFLFSPSLRNSSAFPWATGGTAAVFALFSLAFPALAMPLPPILNTLWFELHVALAFFAYALFTIGAIMGVLFLAGGERRLLDLQYRAALVGYTFFSGSMVAGGIWGYYAWGTYWLWTPKELWTSILWIFYTFWLHLRLRGAGGDRLLAWTGILGFGVMLFTYLGVSMLMKSSHSF” the value was “failed”; for “MTAFAAASPRAAVRTGFDGLAISVATRAMMKNLDQNFDAILITGPTASGKSALALRLARERNGVVINADSMQVYDTLRVLTARPSDHEMEGVPHRLYGHVPAGSAYSTGEWLRDISGLLSDLRGEGRFPVIVGGTGLYFKALTGGLSDMPAIPDDLREGLRARLIEEGAAKLHAELVSRDPSMAQMLQPGDGQRIVRALEVLEATGKSIRDFQRASGPMIIDPERAQKFIVLPERPVLHDRINRRFEAMMDSGAVEEVQALLALNLAPDATAMKAIGVAQIADMLTGRMGAAEVIEKSAAATRQYAKRQMTWFRNQMGDDWTRIQPLEHHHHHH”, “failed”; for “MELGLYTFADVNPNPADGRGPEGARRLRELLEEIELADQVGLDVFGLGEHHRPDYVVSSPSTVLAAAAVKTKNIRLTSAVSVLSSDDPVRVFQQFSTVDLLSNGRAEIMAGRGSFIESYPLFGYDLEDYDVLFAEKLDLLLALREQEVVTWSGTKHPAINGRGVYPRPLQERLPVWIAVGGTPQSVARAGAMGLPVALAIIGGEYRRFAPLFDLYHEAARRAGQEKTKLRTSINVHGFIADTTDKAADQFYGPQAEVMNRIGRERGWGPTNRAHFDAARGPEGNLFLGEPELVAEKIIKAHGVFKNDRFLLQMAIGLMPHDQIMRGIELYGTKVAPLVRKELTGSADPVKATA”, “not failed”. In the case of “MAGAMRKMAVYLGLVEDDGYDGRGFDPDDDFEPELDPEPERDHRRHEPAHQSHGAHQSQRDEEVRVVQPPAQREPMPRAASLAAESSRPARIAPVASITQERASLEKSAPVIMPKVVSEREPYRITTLHPRTYNEARTIGEHFREGTPVIMNLTEMDDTDAKRLVDFAAGLVFGLHGSIERVTQKVFLLSPANVDVTAEDKARIAEGGFFNQSLEHHHHHH”, the protein production entry is reported as “failed”. Regarding “VSRDENSWLIDGATPLEEVTRVLDIAYFPDEENYETISGFMMYMLRKIPKKTDSVVYGKYKFEVIDTENFKIDQILVSLVKEQE”, the protein production result is given as “not failed”. “MRKSDREAFLSSVLGNEQPPAHLARTVIEEKLRNAIIDGSLPSGTALRQQELATLFGVSRMPVREALRQLEAQSLLRVETHKGAVVAPLITEDAVDAYALRILLESEALRLSIPLLDADDLAAAASYIEQLEVETDFGQIGRLNRMFHLSLYAKTHNKRLMRLVEEGLNEEERFLRFNLSSMGLGKLSQDDHWQLLRLAEQKAVEPCVEALQYHLNRGVQAVTQYLQSQKAGNVKPARTKKNTPA”: the protein production entry was “not failed”. Regarding “MRHFGPISGIATFKDTYVATAGYDNQVILWDARTRTPIQRVLHDHLANQCAFNAAGTLLVSASSDYTARVWEVPSLRLKTVLIGHDDDIEMAAFSPDGQTIATCSRDHSIRLFNLSGQTLRILHGHTADVISVCWSADGQTLVSSSDDGSIRRWDANTGQQLETIDLGGVETDTVALSREGIIFAGDDEGKISIISPRGTLLQPAHSAGIKRIIWDDSQRLLISLSYDRSVMLWHLKQDGTLVKTAETSLPSIIWPRSCALLGSHRIAFVTFGSRYATWDFATQTWDLSGIEPAVSLNAVAVVGEDVYSIGDAGILHINGQPSIKAGSLCNFLLPFGDSVLTGGQMGTVFDARTGATLYQHRSPLNCGTTFIKDGALHAAIGTYTGEALIFCLDQQQPRFVTQVRMHENAIKGIAADETYIFSVCATAAAAFFRIADFGLETYLDKAHERISNGCTQIQGGFASIGRDLKLRLWRDGASEVFDTPHSHSIKCIAISRDRSMIATGSYGGTVAVFDLKKRVWASVEKPTASGISCLIHDASGEGFLASAYDGRIYPITPRAAVQSARP”, the protein production entry is “failed”. For “MLFQDDKGVGVAIYRRRFTVLGCASSPGVPRINGDWGACDPQNPRNRRTRAAFMVEQIGPDGGKTTVVIDTGPDFREQMIAAKVQAVDAVLYTHAHADHLHGIDDLRIYFALQKSRIPIWADPVTMARIRDGFAYCLETPAGSNYPPIVRPQLIADINDPVIIDGAGGPIPFKVHMQQHGDVHSLGFRIGDVAYCTDVSDFPAESLPKLTGLDVLVIDALQYRYHPSHLSLEQALGWIEALAPKRAILTHMHIPLDYDTVMRETPDHVEPAYDQMRFEVEIEAP” the value was “failed”; for “MSRPPVFPPPQFPPPRPRPFQRTPPAIFPPILGLLALGLGLRRAAEIWGLPAGLAEAVLGATTGLGAFAVAAYAAKVAQRPGVVIEDLRVLPGRAGLAALVLGLLVLAAVLVPYGPAAARAVLVAGLGLQTILAVTVAALLLSGPKEGRVVTPAFHLHFVGFIIGGLTAAPVGWPGLGTVLLAVCAPVAAAIWIASLVQFLRRVPPPPLRPLLAIHLAPAALLGLVAGQQELPLVAQLCAAAGGVLLLAFLASARWLLAGGFSPLWGALTFPLAAYAGLLLVVWPQAGAVLLAAAALVIPPIAAKILQEWAKGRLAVRTNAAQA”, “failed”. For “MKRFVLLDTTAIPENGGALCLFEYGEDFVIKIQGGDGGQLMNTRMHGSEDALAQIPCSKVAGRPNSRVLIGGLGMGFTLAAALKHLGKSAKVVVAELVPGVVEWNRGPLGEKSGRPLLDPRTVIRLEDVAKVLQAEPQGFDAIMLDVDNGPEGLTQKANSWLYSSAGLAACARALRPKGILAVWSASADRQFSERLRKAGFKAEEVQVFAHGNRGTRHTIWIAEKLKA” the value was “failed”; for “DQDTLVQRAEHIPAGKRTPMCAHCNQVIRGPFLVALGKSWHPEEFNCAHCKNTMAYIGFVEEKGALYCELCYEKFFA”, “not failed”.
